According to US20220267751A1:

biological target: recombinant streptokinase from Streptococcus pyrogenes (so in the source) (Streptococcus pyrogenes (so in the source)); assay: SPR (Biacore T200), SK on Ni2+-NTA chip, 1:1 Langmuir model

Chain of native plasminogen (purchased from Merck, purified from human plasma) (P00747 20-810 limits assumed): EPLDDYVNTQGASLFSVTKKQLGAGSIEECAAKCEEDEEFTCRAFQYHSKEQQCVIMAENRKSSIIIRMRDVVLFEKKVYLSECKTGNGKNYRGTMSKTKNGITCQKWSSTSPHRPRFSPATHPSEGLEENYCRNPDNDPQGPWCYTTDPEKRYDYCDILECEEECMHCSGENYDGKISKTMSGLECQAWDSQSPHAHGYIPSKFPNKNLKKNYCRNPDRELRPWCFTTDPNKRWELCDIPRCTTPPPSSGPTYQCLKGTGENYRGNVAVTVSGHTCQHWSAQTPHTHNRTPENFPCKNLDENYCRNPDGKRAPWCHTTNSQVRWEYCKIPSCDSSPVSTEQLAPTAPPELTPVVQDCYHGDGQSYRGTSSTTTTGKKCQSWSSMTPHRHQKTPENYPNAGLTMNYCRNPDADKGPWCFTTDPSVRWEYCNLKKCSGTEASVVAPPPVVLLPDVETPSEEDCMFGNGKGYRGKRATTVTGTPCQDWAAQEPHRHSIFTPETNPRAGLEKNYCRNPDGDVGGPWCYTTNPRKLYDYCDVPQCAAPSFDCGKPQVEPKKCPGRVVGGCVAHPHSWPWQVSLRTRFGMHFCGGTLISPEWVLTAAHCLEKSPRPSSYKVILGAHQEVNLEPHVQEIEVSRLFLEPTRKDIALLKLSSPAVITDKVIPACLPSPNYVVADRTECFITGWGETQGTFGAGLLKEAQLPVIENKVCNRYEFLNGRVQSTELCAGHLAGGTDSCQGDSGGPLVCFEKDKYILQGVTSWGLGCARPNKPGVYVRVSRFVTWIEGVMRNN
Chain of recombinant plasminogen (P00747 20-810 limits assumed): as above
Chain of native plasmin (purchased from Haematologic Technologies) (P00747 97-580 limits assumed): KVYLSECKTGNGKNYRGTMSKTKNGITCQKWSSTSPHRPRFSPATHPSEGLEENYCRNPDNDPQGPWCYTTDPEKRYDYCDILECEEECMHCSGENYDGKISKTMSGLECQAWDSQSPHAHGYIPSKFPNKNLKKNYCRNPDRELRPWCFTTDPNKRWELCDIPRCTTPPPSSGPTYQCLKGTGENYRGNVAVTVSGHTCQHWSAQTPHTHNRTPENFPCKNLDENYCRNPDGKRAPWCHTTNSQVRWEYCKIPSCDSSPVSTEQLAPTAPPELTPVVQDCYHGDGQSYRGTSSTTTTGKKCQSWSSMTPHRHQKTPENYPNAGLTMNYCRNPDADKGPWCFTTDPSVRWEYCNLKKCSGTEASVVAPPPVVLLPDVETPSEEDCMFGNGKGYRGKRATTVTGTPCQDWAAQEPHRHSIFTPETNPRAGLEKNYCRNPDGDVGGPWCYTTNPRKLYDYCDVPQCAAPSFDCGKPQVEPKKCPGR
Chain of native plasmin (purchased from Haematologic Technologies) (P00747 581-810 limits assumed): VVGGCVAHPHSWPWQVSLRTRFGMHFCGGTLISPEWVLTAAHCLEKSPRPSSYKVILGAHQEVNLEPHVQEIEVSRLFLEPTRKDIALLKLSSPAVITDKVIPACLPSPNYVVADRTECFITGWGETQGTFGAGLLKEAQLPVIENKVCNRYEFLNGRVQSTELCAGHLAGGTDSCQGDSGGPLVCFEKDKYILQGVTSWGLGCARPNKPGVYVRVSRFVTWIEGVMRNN

Substance | Kd [nM] | koff [s⁻¹] | kon [M⁻¹ s⁻¹]
recombinant plasminogen (from UniProt P00747 20-810) | 1.4 | 0.00036 | 270000
native plasmin (purchased from Haematologic Technologies) (from UniProt P00747 97-580; P00747 581-810) (enzyme) | 0.33 | 0.0023 | 7.1e+06
native plasminogen (purchased from Merck, purified from human plasma) (from UniProt P00747 20-810) | 1.4 | 0.00032 | 230000
